Measured values: US7736875B2, “Dipeptidyl peptidase I crystal structure and its uses” (Prozymex A/S, priority 2000, dated 2010)
Blank lines part the entries; values can stand above or below the molecule they belong to.

How the values were obtained:
[1] = DPPI transferase assay; type: biochemical, rat; settings: FIG. 8
Excerpt: The rate of transfer of dipeptides from a donor peptide to the nucleophilic amino terminus of an acceptor peptide, the ratio of dipeptide transfer to hydrolysis and the stability of elongated peptide product to hydrolytic turnover are estimated in a transferase assay.
In these reactions, X and Y are any amino acid residue with the exception of prolyl. X is preferably Phe and Y is preferably Arg or Lys and pNA is a para-nitroanilide group. H and COOH indicate unblocked peptide amino and carboxy termini, respectively. In the transferase reaction, DPPI catalyses the transpeptidation of dipeptide H-Pro-X from the peptide amide to the free amino group of residue Y. The dipeptide can not be transferred to a second H-Pro-X-NH2 molecule because of the N-terminal Pro residue. The progress of the transpeptidation reaction is monitored in the trypsin cleavage reaction, in which produced H-Pro-X-Y-pNA tripeptide is hydrolysed following the addition of trypsin endoprotease to an aliquot of reaction mixture. Trypsin hydrolyses H-Pro-X-Arg/Lys-pNA much more rapidly than H-Arg/Lys-pNA (low aminopeptidase activity) making it possible to determine the amount of tripeptide formed. The transferase reaction is essentially stopped upon addition of trypsin because the reactants are diluted 10-fold (resulting in an approximately 100-fold lower rate) and because DPPI is unstable at pH 8.3.
The concentration of tripeptide obtained also depends on the rates of hydrolysis of the initial substrate (Hydrolysis reaction 1) and of the tripeptide (Hydrolysis reaction 2):
The hydrolysed peptides […] and […] are not DPPI substrates and can no longer be used in peptide synthesis. Accordingly, the peptidase activity of DPPI degrades both the trypsin substrate (before trypsin is added to the reaction mixture) and one of its precursors.
20 μl of DPPI (1-50 U/ml) in 20 mM Tris-HCl or sodium phosphate-NaOH buffer pH 7.5 is mixed with 20 μl 20 mM dithiothreitol (DTT) and allowed to incubate for 30 min at 5-37° C., preferably 12° C. Meanwhile, 10 μl 400 mM H-Pro-X-NH2 and 10 μl 500 mM H-Y-pNA (both in 100% dimethyl formamide) and 140 μl […] Tris-HCl or sodium phosphate-NaOH buffer, pH 7.5 are mixed and incubated at the same temperature. The transferase and hydrolysis reactions are initiated by the addition of reduced and activated DPPI to the peptide mixture (same temperature). All reaction mixtures should include a minimum of 10 mM chloride.
The progress of the reaction is followed by mixing 10 μl aliquots with 1 μM trypsin in 0.1 M Tris-HCl buffer pH 8.3 and at 5-37° C., preferably 20-37° C. A yellow colour quickly appears. After 10 min, 1000 μl of water are added and the absorbance at 405 nm is measured against an appropriate blank.

[2] = system: one or more cysteine peptidases present in the eluates of the Butyl SEPHAROSE FF column; test: Proteolytic processing of immature DPPI peptides in Butyl Sepharose FF eluate (SDS-PAGE); type: biochemical; settings: eluate incubated at pH 4.5, 4° C.
Experimental: DPPI eluted from the hydrofobic interaction column was in general only partially processed to the mature, active form. To complete the processing, the eluate was incubated at pH 4.5 and 4° C. for 18-40 hours to convert the immature peptides to the peptides of mature rrDPPI or rhDPPI. […] Furthermore, the rate of processing was dependent on the pH of the buffer during incubation. No conversion of the immature peptides could be observed at pH 7.0 as determined by SDS-PAGE analysis but processing was observed when incubation was performed at pH 6.5 or below. The processing proceeded at highest rate at about pH 4.5. The fully processed rhDPPI and rrDPPI were finally purified and concentrated on Q-SEPHAROSE™ FF as described above. Recombinant hDPPI was quantified using an extinction coefficient at 280 nm of 2.0.

Molecule: D274Q: rat DPPI active site mutant Asp274 to Gln274
influence of mutation on rat DPPI transferase activity ([1]; versus wild type rat DPPI): no favourable influence

rate of generation of the tripeptide substrate ([1]; compared with wild type and D274Q): nearly as fast as the other two variants
Molecule: N226S229:Q226N229: rat DPPI active site double mutant Asn226:Ser229 to Gln226:Asn229
stability of the produced tripeptide product in presence of the variant [1]: much more stable
transferase activity versus hydrolytic activity (maximum level of tripeptide) [1]: favoured over the hydrolytic activity

Molecule: CC(C)C[C@H](NC(=O)[C@H]1O[C@@H]1C(=O)O)C(=O)NCCCCN=C(N)N [E-64, reference compound]
proteolytic processing of the immature peptides to mature rrDPPI or rhDPPI ([2]; addition of 1 μM E-64): completely blocked

B1: chicken cystatin: non-covalent protein inhibitor of cysteine peptidases of the cystatin family (protein, UniProt P01038 24-139, looked up)
Cystatin: SEDRSRLLGAPVPVDENDEGLQRALQFAMAEYNRASNDKYSSRVVRVISAKRQLVSGIKYILQVEIGRTTCPKSSGDLQSCEFHDEPEMAKYTTCTFVVYSIPWLNQIKLLESKCQ
proteolytic processing of the immature peptides to mature rrDPPI or rhDPPI ([2]; addition of 0.1 μM chicken cystatin): completely blocked
